From the DeepSol protein solubility set

Assay: soluble on expression in E. coli; label from the status in PepcDB or PDB records

| Sequence | soluble on expression in E. coli |
| --- | --- |
| MGSDKIHHHHHHMSLLINLSFAPLQPTGWLTYSLNLLPHIKYLGVNVLSPREIPEVKVYQSPTNITTECGIKGHFQRLMWVQFKLPSFYKKLKSQLLFSPIPEVPLFSRCRSIVTIHDLIPLRFPQEFSAAQLFYCRNYLPAVIKQSEHIICNSLSTAHDIQNFLGVPEKKITITSLAIDTENFKFLDLPKKNYFLYYGRHNIYKNLNRIIAAFAALPNKDYELWLAGPNDARYTPTLQAQVEELGITHRVKFLDYVSYSELPVIINQAIALVFPSLWEGFGFPVLEALACGTPVITSNLSSLPEVAGDAAILINPYNTAEITDAMQNIANDVKLQSHLSTQGIARANQFSWERTGKATSEVLSRYL | not soluble |
| MGSDKIHHHHHHMNELTNKLQQVMVPKAALIAYEYRENRYGNGMHYLELHPINDRGRMEAAMPVTYEFMDSLVESYTDDRRNVPHGKIPANMLWCDTRKGHERYIWYNPPGKRRMFFAGSLNIPDGTFHVPGVIYKVSGDRLDIFSYKGEKPAENSPLFLAPFFNVTGSSVCLGNAALTPPEDMTFSKLLEYWEKRFWLSEFSHLGGSRNPTGSNLVSVTEKARANPFDENELKPMSKQLKDLLA | not soluble |
| MGSDKIHHHHHHMEKENIMTVDIEDFKKSQHILDYIDDDFAIVNSLDGIPYSNDTVRLNCFLIAVCAEGCIQLDINYRTYQLQAGDLLLGLPNTLISRTMLSPKYKIRLAGFSTRFLQRIIKMEKKTWNTAAHIHNNPVKSISEGGDDPVFRFYRDLIVAKINDEPHYYHREVMQHLFSALFCEMLGQLHKEIDAPDKGDSPKEGIKQADYTLRKFVELLSKDKGMHRSVSYYADALCYTPKHFSKVIKQACGRTPLDLINETTIEHIKYRLKRSDKSVKEIAEEFNFPNQSFFGKYVKMHLGTSPANYRNREDE | not soluble |
| MSLTVRLRPHHLLCMLTYIGKGYTSGFVENYDRVAFRLNAGEDIELVEGADDVCEGLLCESHAHCFNDGIVQRDETARLSVSTLLGETLIAGKRLRVTPDFLAKMRLAFAAGDIRQACRGCQWIKLCDRIAASGFAGVKIGVPSQVVPKDATRHPMLRPKYGPSGRKLEGHHHHHH | not soluble |
| MFKRLMMVALLVIAPLSAATAADQSNPYKLMNEAAQKTFDRLKNEQPKIRANPDYLRDVVDQELLPYVQVKYAGALVLGRYYKEATPAQREAYFAAFREYLKQAYGQALAMYHGQTYQIAPEQPLGDATIVPIRVTIIDPNGRPPVRLDFQWRKNTQTGNWQAYDMIAEGVSMITTKQNEWSDLLRTKGIDGLTAQLKSISQQKITLDEKQLEHHHHHH | soluble |
| MSFDAKSLQQVREQVAARLRLDAGRPWLMVHAGSGGSANNLSIEQYARLIIKLNQACPELQCILTAGPGEERIAEQLAAELLAHGGNGWIYRSDEGLPKFCQVMANAALFVAGSTGPLHIAAALDVPTIGFFPAHRSATPLRWRPLNSEGRHLAFSPPEDSDHPEDMSQLDPKTMAAAIARWAPPFWRTEHLEHHHHHH | soluble |
| GMELQDTIFKRQSVRKFKNQDVSDEDILKMIKAAGAAPSGKNIQNWHFVVIKRRDLMEKIADVITKKQQEILVEMDKVSVDKANRFRKFVKNFTLFYLKAPVLVLVFTKVYNPSGYYELELIDAPKETIDKLFIRNPGMQSLGAAIENFTLSAIELGYGSCWLTSQNYAADEIEAVLEAETGFEKGEYFLGAMLALGVPEDNLKSPSKKPVEEICTFIK | soluble |
| MAKYQSMLVVIDPNQDDQPALRRAVYLHQRIGGRIKAFLPIYDFSYEMTTLLSPDERTAMRQGVIAQRTAWIREQAKFYLESGVPIDVKVVWHNRPFEAIIQEVVSEKHDLLLKMAHQHDKLEAVIFTPTDWHLLRKCPCPVWMVKDQPWPEGGKALVAVNLASEENYHNTLNEKLVRETLSLAEEVNHTEVHLIGAYPVTPINIAIELPDFDPSVYNDAIRGQHLLAMKALRQKFGIDEKFTHVEKGLPEEVIPDLAEHLQAGIVVLGTVGRTGLSAAFLGNTAEQVVDHLRCDLLVLKPEAYQTPVELDDDDDD | not soluble |
| MGSDKIHHHHHHVTLRQRIQAMSDCNRDPVSQITDLSGALVTIVPSLLACVGMVFASNLTDVTAEALLYDYREAANPLGQRLIARVPYQDWGAELHQTPETAIIPLDLSEALGCEGPATSPSLLANFVHILPNQAIETTAIATSQIFYVLRGQGVTRVADQEIAWTEGCCLALPADAIATHYAQTDSAFYWVHDAPLLRYLGVKPDRARFQPTLYRRQDLEATLAAIAADPQSRKANRLSVLLANQNFPQTRTITHTIWAMFGLLPPDVVQAPHRHQSVALDLILDCQPGCYTLVGTQLDERGQIRNPVRVDWRPYSVFVTPPGYWHAHYNESGQEAHLLPIQDAGLHTYLRTLDILFARHNGQISDEAA | not soluble |
| MHHHHHHSSGVDLGTENLYFQSNAMTIMLTPMQTEEFRSYLTYTTKHYAEEKVKAGTWLPEDAQLLSKQVFTDLLPRGLETPHHHLWSLKLNEKDIVGWLWIHAEPEHPQQEAFIYDFGLYEPYRGKGYAKQALAALDQAARSMGIRKLSLHVFAHNQTARKLYEQTGFQETDVVMSKKL | soluble |
| EAQTETCTVAPRERQNCGFPGVTPSQCANKGCCFDDTVRGVPWCFYPNTIDVPPEEESEF | soluble |
| MGSDKIHHHHHHLINVAETTGLQTKAFVGEADFQIVDYAGDKCIQFKNDSVFNAMLWEMNDMSEEERNNIFSGAGFVSQWQLMQEADQEQELIVDNYEKDLSQPWPAHQIKEFKQKYDDVFMFEPYDSTDFIAHYKLKGSTYSSFVNRRGVFLIGDSVAHAPVYKALEEYFGSGISLYGNNEATNEKNDINLAESKYQIPGGDYVKVRAIPRFIELQTIENKNYLSLGFDYLSQKKKVLWKKHRTMIILRLTASGSGSGFEVYNVSIKNYQNKNGVTILLHTDVYNKLLAKDQGGMLGHVGENPRNSVTIVTPPRFEFSGRMEIWSDEMPESNKGTAKISLKEDW | not soluble |
| GMMFKWPWKADDESGNAEMPWEQALAIPVLAHLSSTEQHKLTQMAARFLQQKRLVALQGLELTPLHQARIAMLFCLPVLELGIEWLDGFHEVLIYPAPFIVDDEWEDDIGLVHNQRVVQSGQSWQQGPVVLNWLDIQDSFDASGFNLVVHEVAHKLDTRNGDRASGVPLIPLREVAGWEHDLHAAMNNIQDEIDLVGESAASIDAYAATDPAECFAVLSEYFFSAPELFAPRFPALWQRFCHFYRQDPLARRRENGLQDEGDRRIVH | soluble |
| MSLALGSYIERRGELETYFDRTAADTWAKLTSDAPVSGIRATVRAGRDEMRNTLLSWLPADMTGTRLLDAGCGTGALSIEAARRGAKIVAIDLSPTLVAVARERLPDDIDPAAIDFRSGDMLDPELGEFDFVVAMDSLIHYLPHDICRMLATLASRTRQSMAVTFAPKTPLLTLMHFVGGFFPRADRAPAIEPISEKTLRGLVAEDPLLAQWQPGRTHRVSSGFYTSQALEMVREGHHHHHH | soluble |
| MGSDKIHHHHHHAHELEANEKYPGKSVKAQTRKEIVTFFSESLSGKTTTFDAGKPLKLSEVEHYRDVVWQLWKEANDGFKEEKLIALDTLSSASTGYWKLPDSLEPNAVMPYYWGMKGTDEIGNELPLFLYLHGSGPKEREWSTGLNICRNFDDAPSVYFIPQIPNEGEYYRWWQKAKQFAWEKLLRQSLLLGKIDPNRVYVFGISEGGYGSQRLASFYADYWAAAGPMAGGEPLKNAPAENCSNIAFSLRTGDKDTGFYRNTLTGYVREAFDSLAHQHPGYFTHKIELIPGMGHSIDYRPTTPWLKQYVRNPYPKYVSWENFEMDGLYRKGFYNLYVKERSDEEGKSRTYYEMSISGNHISLKVDDVVYEATEKDQRWGIEMKFAKKYAQAHKGKVVIYLCDELVDLTEKVTLTVNGKKVFEGKVKADLKNMVNSCAVFFDPQRLYPAAIEVELK | not soluble |
| MNLNNIRSSMTESTKSKDESMRSHLVKPGSVYDGIEPGELGETTESVQDRVRQLESRNSFLEEQCSQIESEKRYLENQKIKYEREIRKLQSELDRMKTSPLIIGTVIDVIKNDRIIVRSSNGPQFLVNVSQYIDEKKLLPGAKVALNQHTLAIAEVIPSTEEPFVAAMEVIESVEVDYDQIGGLDEQIQELQEAVELPLTSPERFARIGIEPPKGVLLYGLPGTGKTLLAKAVAHRTNATFIRVVGSELVQKYIGDGSKLVREIFEMARKKAPSIIFIDELDSIAARRLNETTGADREVQRTLMQLLAEMDGFDKRKNIRIIAATNRPDVLDPAILRPGRFDRLVHVPMPGIEARGKILKIHCEKMTLAEDIDFKKLAKATEGMSGADLKAIATEAGMFAVRRDKELVEMEEFLEAVEKVSMAADTQKMMPSNLPETMFV | not soluble |
| MNSNSLSRFTSIVRTTSIRGFHDRSSVPRVVDDREKSSAKYNDAGYTFRYHQQGVDPLPRIPDCKVPVARPAYKVRDQWSDEAARFGQNDYIDLLGDGSVHPAQLQYHTPTWLRGFPGQHKANELIKLIHYRNLYDAKLKQNSPKRWHELRKRIKYLMMQHNYNKQDEIGRERNLGLWEEEPDYTYKDKSRRSFKDEIH | not soluble |
| MPLVVFCGLPYSGKSRRAEELRVALAAEGRAVYVVDDAAVLGAEDPAVYGDSAREKALRGALRASVERRLSRHDVVILDSLNYIKGFRYELYCLARAARTPLCLVYCVRPGGPIAGPQVAGANENPGRNVSVSWRPRAEEDGRAQAAGSSVLRELHTADSVVNGSAQADVPKELEREESGAAESPALVTPDSEKSAKHGSGAFYSPELLEALTLRFEAPDSRNRWDRPLFTLVGLEEPLPLAGIRSALFENRAPPPHQSTQSQPLASGSFLHQLDQVTSQVLAGLMEAQKSAVPGDLLTLPGTTEHLRFTRPLTMAELSRLRRQFISYTKMHPNNENLPQLANMFLQYLSQSLH | soluble |
| MAQRLDGARFRYLNEQLYSGPSSAAQRLFQEDPEAFLLYHRGFQSQVKKWPLQPVDRIARDLRQRPASLVVADFGCGDCRLASSIRNPVHCFDLASLDPRVTVCDMAQVPLEDESVDVAVFCLSLMGTNIRDFLEEANRVLKPGGLLKVAEVSSRFEDVRTFLRAVTKLGFKIVSKDLTNSHFFLFDFQKTGPPLVGPKAQLSGLQLQPCLYKRR | soluble |
| MPVDTKTVLVVRHGTAGRRSRYKGDDRKRPLDKRGRAQAEALVAQLMAFGATTLYAADRVRCHQTIEPLAQELDQLIHNEPLLTEEAYAADHKAARKRLLEIAGRPGNPVICTQGKVIPGLIEWWCERAKVRPETTGNRKGSTWVLSLSDGELVGADYLSPPDEKLEHHHHHH | not soluble |
| MKPYLEEKLEGARKSVPGFALEELKQKIISSPIQFGKSDIDDLVSNLLKRYEQTKENSLIGKIDSIFKEISDIEKVMSAKQPEPAQQQAPVEKPKKKAKLEVIGDDVVSIMVSLRWLEFLLDNYGPENTLDVLDYYESLGWISATVKEQMMKYAKMTGVMNPAQEYKIKPSIQDHIINMLFIEKLRGEEINRDLIEALEREFRTIRKGVDELYGI | soluble |
| MTRIIASLSEVSAGYSALFCDLWGCLHDGKRPFAEAVEALRAFRARGGTVLLMTNAPRPKPSVVRQLESIGVPPDCYDEVTSSGDAAQYALVTGAVGRRVYHLGPQKDETFFTELSPDLQKVAATEAPIVRVPLEEAEGIVCTGLFDDLTETPEDYRATLLYAKTQGLKLLCANPDIVVDFGDKRIYCAGAIAEAYDAMGGQSLYFGKPHPPIYDLARRRLEALRPGVPADEILCVGDGIATDIRGAVAEGLDSLFITGGLAASVFGENGE | not soluble |
